Laboratory results reported in patent publication US20250376539A1 (KIRA PHARMACEUTICALS SUZHOU, published 2025).

T1: recombinant cyno C2a, C-terminal 6His-tag, made in house (CHO cell expression) (cynomolgus monkey, UniProt P06681 244-752 (human entry))
T1 chain: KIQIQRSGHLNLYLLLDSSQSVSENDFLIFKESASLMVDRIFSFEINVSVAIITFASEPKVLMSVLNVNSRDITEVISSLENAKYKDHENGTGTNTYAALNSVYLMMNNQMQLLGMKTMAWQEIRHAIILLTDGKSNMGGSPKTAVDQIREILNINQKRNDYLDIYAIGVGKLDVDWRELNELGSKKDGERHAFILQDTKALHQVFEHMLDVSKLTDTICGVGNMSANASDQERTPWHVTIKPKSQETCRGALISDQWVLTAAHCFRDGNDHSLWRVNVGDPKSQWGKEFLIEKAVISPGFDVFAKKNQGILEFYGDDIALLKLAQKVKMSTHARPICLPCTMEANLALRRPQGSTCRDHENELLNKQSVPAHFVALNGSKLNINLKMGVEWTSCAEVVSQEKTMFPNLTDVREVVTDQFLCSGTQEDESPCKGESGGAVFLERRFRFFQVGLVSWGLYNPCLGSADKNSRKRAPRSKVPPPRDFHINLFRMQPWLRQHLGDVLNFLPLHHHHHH

T2: recombinant human complement C2 (NP_000054.2), C-terminal 6His-tag, made in house (CHO cell expression) (human, UniProt P06681 21-752)
T2 construct: a linker before the tag is not described; also called human C2; Human C2
T2 sequence: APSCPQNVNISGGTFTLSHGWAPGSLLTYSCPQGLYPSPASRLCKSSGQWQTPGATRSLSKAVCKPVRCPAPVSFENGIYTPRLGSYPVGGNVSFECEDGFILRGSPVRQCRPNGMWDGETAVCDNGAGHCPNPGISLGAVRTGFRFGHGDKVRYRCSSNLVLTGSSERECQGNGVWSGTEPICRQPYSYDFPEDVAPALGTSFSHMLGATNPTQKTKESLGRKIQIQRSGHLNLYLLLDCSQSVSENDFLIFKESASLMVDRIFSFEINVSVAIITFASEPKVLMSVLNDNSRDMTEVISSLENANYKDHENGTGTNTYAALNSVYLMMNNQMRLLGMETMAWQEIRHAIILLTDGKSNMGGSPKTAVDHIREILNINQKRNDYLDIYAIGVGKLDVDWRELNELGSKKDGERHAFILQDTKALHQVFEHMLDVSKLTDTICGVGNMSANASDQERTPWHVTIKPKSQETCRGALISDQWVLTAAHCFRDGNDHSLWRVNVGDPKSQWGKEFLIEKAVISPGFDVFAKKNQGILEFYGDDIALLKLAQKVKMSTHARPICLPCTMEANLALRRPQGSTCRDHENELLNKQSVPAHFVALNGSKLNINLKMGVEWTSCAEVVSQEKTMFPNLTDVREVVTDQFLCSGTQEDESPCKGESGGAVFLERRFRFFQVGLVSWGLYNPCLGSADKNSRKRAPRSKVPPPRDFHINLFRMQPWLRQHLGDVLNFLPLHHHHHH

T3: recombinant human C2a, C-terminal 6His-tag, made in house (CHO cell expression) (human, UniProt P06681 244-752)
T3 sequence: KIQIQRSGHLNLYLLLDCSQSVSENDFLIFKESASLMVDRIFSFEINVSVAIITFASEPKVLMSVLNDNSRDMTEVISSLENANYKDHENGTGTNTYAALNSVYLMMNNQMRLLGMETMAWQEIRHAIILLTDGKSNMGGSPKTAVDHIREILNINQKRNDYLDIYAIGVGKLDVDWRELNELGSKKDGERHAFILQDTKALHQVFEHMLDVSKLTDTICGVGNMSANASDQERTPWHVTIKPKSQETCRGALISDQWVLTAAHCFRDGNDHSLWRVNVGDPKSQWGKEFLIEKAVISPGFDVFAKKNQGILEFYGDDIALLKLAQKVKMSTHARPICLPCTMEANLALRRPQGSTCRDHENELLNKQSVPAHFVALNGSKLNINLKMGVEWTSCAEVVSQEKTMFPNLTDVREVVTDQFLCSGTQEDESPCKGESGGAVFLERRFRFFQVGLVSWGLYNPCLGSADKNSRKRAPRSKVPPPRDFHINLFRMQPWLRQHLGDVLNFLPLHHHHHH


How the values were obtained:
[1] = target: T1, recombinant cyno C2a, C-terminal …; test: ELISA on cyno C2a, OD450nm against log Ab conc. (nmol/L)
[2] = target: T2, recombinant human complement C2 …; test: BLI (Gator), antibody on probe; 600 s association at pH 7.4, 600 s dissociation at pH 5.8
Experimental: (§1) The histidine mutant constructs in Table 4 were tested for their pH-dependent dissociation from human C2. Probe-immobilized anti-C2 antibodies were incubated with C2 at pH 7.4 for 600s, followed by a 600s dissociation period in K Buffer at pH 7.4 or pH 5.8. The data were processed and analyzed by the Gator evaluation software.

[3] = target: T2, recombinant human complement C2 …; test: BLI (Gator), antibody on probe; 600 s association at pH 7.4, 600 s dissociation at pH 7.4
Experimental: as §1

[4] = target: T1, recombinant cyno C2a, C-terminal …; test: ELISA
[5] = target: T3, recombinant human C2a, C-terminal …; test: ELISA

binding result [1]	Dissociation (%) pH 5.8 [2]	Dissociation (%) pH 7.4 [3]	EC50 [4]	EC50 [5]	Binder
no binding (tested: 100 nmol/L)	8.2%	3.59%			anti-C2 antibody 3.2 (antibody, IgG4, V domains shown, Recombinant; also called WT; "WT" 3.2) VH: EVQLLESGGGLVQPGGSLRLSCAASGFTFRHYAMSWVRQAPGKGLEWVSLISGSGASTFYADSVKGRFTISRDNSENMLYLQMNSLRAEDTAVYYCAKDSLAVAGSEYFQHWGQGTLVTVSS VL: SYVLTQAPSVSVAPGQTARITCGGNYFGGKSVHWYQQRPGQAPVLVVYDDSDRPSGIPERFSGSKSGNTATLAISRVEAGDEAAYYCQVYDTSSDHWVFGGGTKLTVL
			0.119 nM	0.117 nM	anti-C2 antibody 69.44 (antibody, IgG4, V domains shown, Recombinant) VH: QVQLVQSGAEVKKPGASVKVSCKASGYSFTTYYMYWVRQAPGQGLEWMGIITPSGGSTTYAQKFQDRVTMTRDASTTTVYMELSSLRSEDTAVYYCARGYEGSYGFDHWGQGTLVTVSS VL: SYELTQPPSVSLSPGQTASITCSGDKLGNKYTCWYQQKPGQSPVLVIYQDNKRPSGIPERFSGSNSGNTATLTISGTQAMDEADYYCQTWDSSTAVFGGGTKLTVL
